The text below walks through data of article PMC4132020.

For this assay, the target named is Sso7d-IN with an 11 glycine linker (Sulfolobus solfataricus chromosomal protein Sso7d fused to the N-terminus of HIV-1 integrase) (Sulfolobus solfataricus | HIV-1). Put plainly: SEC; Superdex 200 PC 3.2/30, 20 mM HEPES pH 7.5, 20% glycerol, 5 mM DTT, 500 mM NaCl; free protein peak of a scaled-up intasome assembly mixture (with U5-25 DNA, CaCl2, 4 µM ZnCl2) after addition of 500 mM NaCl; position relative to protein standards.

With “Sso7d-IN with an 11 glycine linker (Sulfolobus solfataricus chromosomal protein Sso7d fused to the N-terminus of HIV-1 integrase) (enzyme)”, the stoichiometry N – broadly, a count of units in the complex or per binding partner – was determined as 4.
